According to the Human Domainome abundance scans (Beltran et al. 2025):
± gives the uncertainty stated by the source.

B1: SAM and SH3 domain-containing protein 1, residues 630 to 700; numbered along this chain, O94885 (parent)
chain: GRPPQPKSVEDLLDRINLKEHMPTFLFNGYEDLDTFKLLEEEDLDELNIRDPEHRAVLLTAVELLQEYDSN

Variants of: B1
Assay: abundance fitness (aPCA) (normalised: wild type 0, dead -1); higher = more abundant; growth selection in yeast, the domain comes from the species named
Settings: Homo sapiens

Variant	abundance fitness
GRPPQPKSVEDLLDRINLKEHMPTFLFNGYEDLDTFKLLEEEDLDELNIRDPEHRAVLLTAVELLQEGDSN [Y68G]	0.168 ± 0.041
GRPPQPKSVEDLLDRINLKEHMPTFLFNGYEDLDTFKLLEEEDLDELNIRDPEHRAVLLTAVELLQEPDSN [Y68P]	0.015 ± 0.047
GRPPQPKSVEDLLDRINLKEHMPTFLFNGYEDLDTFKLLEEEDLDELNIRDPEHRAVLLTAVELLQELDSN [Y68L]	-0.068 ± 0.038
GRPPQPKSVEDLLDRINLKEHMPTFLFNGYEDLDTFKLLEEEDLDELNIRDPEHRAVLLTAVELLQEVDSN [Y68V]	-0.038 ± 0.043
GRPPQPKSVEDLLDRINLKEHMPTFLFNGYEDLDTFKLLEEEDLDELNIRDPEHRAVLLTAVELLQEQDSN [Y68Q]	0.254 ± 0.048
GRPPQPKSVEDLLDRINLKEHMPTFLFNGYEDLDTFKLLEEEDLDELNIRDPEHRAVLLTAVELLQENDSN [Y68N]	0.138 ± 0.053
GRPPQPKSVEDLLDRINLKEHMPTFLFNGYEDLDTFKLLEEEDLDELNIRDPEHRAVLLTAVELLQETDSN [Y68T]	0.031 ± 0.045
GRPPQPKSVEDLLDRINLKEHMPTFLFNGYEDLDTFKLLEEEDLDELNIRDPEHRAVLLTAVELLQEEDSN [Y68E]	0.21 ± 0.053
GRPPQPKSVEDLLDRINLKEHMPTFLFNGYEDLDTFKLLEEEDLDELNIRDPEHRAVLLTAVELLQEDDSN [Y68D]	0.076 ± 0.054
GRPPQPKSVEDLLDRINLKEHMPTFLFNGYEDLDTFKLLEEEDLDELNIRDPEHRAVLLTAVELLQERDSN [Y68R]	0.094 ± 0.038
GRPPQPKSVEDLLDRINLKEHMPTFLFNGYEDLDTFKLLEEEDLDELNIRDPEHRAVLLTAVELLQEADSN [Y68A]	0.245 ± 0.039
GRPPQPKSVEDLLDRINLKEHMPTFLFNGYEDLDTFKLLEEEDLDELNIRDPEHRAVLLTAVELLQEWDSN [Y68W]	-0.056 ± 0.051
GRPPQPKSVEDLLDRINLKEHMPTFLFNGYEDLDTFKLLEEEDLDELNIRDPEHRAVLLTAVELLQEKDSN [Y68K]	0.054 ± 0.056
GRPPQPKSVEDLLDRINLKEHMPTFLFNGYEDLDTFKLLEEEDLDELNIRDPEHRAVLLTAVELLQEMDSN [Y68M]	0.025 ± 0.053
GRPPQPKSVEDLLDRINLKEHMPTFLFNGYEDLDTFKLLEEEDLDELNIRDPEHRAVLLTAVELLQEIDSN [Y68I]	-0.191 ± 0.055
GRPPQPKSVEDLLDRINLKEHMPTFLFNGYEDLDTFKLLEEEDLDELNIRDPEHRAVLLTAVELLQECDSN [Y68C]	0.105 ± 0.051
GRPPQPKSVEDLLDRINLKEHMPTFLFNGYEDLDTFKLLEEEDLDELNIRDPEHRAVLLTAVELLQESDSN [Y68S]	0.14 ± 0.038
GRPPQPKSVEDLLDRINLKEHMPTFLFNGYEDLDTFKLLEEEDLDELNIRDPEHRAVLLTAVEWLQEYDSN [L64W]	0.148 ± 0.043
GRPPQPKSVEDLLDRINLKEHMPTFLFNGYEDLDTFKLLEEEDLDELNIRDPEHRAVLLTAVEVLQEYDSN [L64V]	-0.234 ± 0.039
GRPPQPKSVEDLLDRINLKEHMPTFLFNGYEDLDTFKLLEEEDLDELNIRDPEHRAVLLTAVELLNEYDSN [Q66N]	0.059 ± 0.038
GRPPQPKSVEDLLDRINLKEHMPTFLFNGYEDLDTFKLLEEEDLDELNIRDPEHRAVLLTAVELLLEYDSN [Q66L]	-0.351 ± 0.038
GRPPQPKSVEDLLDRINLKEHMPTFLFNGYEDLDTFKLLEEEDLDELNIRDPEHRAVLLTAVELLAEYDSN [Q66A]	-0.317 ± 0.048
GRPPQPKSVEDLLDRINLKEHMPTFLFNGYEDLDTFKLLEEEDLDELNIRDPEHRAVLLTAVELLCEYDSN [Q66C]	-0.448 ± 0.064
GRPPQPKSVEDLLDRINLKEHMPTFLFNGYEDLDTFKLLEEEDLDELNIRDPEHRAVLLTAVELLREYDSN [Q66R]	0.33 ± 0.034
GRPPQPKSVEDLLDRINLKEHMPTFLFNGYEDLDTFKLLEEEDLDELNIRDPEHRAVLLTAVELLIEYDSN [Q66I]	-0.563 ± 0.054
GRPPQPKSVEDLLDRINLKEHMPTFLFNGYEDLDTFKLLEEEDLDELNIRDPEHRAVLLTAVELLEEYDSN [Q66E]	-0.623 ± 0.088

Variant	abundance fitness
GRPPQPKSVEDLLDRINLKEHMPTFLFNGYEDLDTFKLLEEEDLDELNIRDPEHRAVLLTAVELLDEYDSN [Q66D]	-0.49 ± 0.064
GRPPQPKSVEDLLDRINLKEHMPTFLFNGYEDLDTFKLLEEEDLDELNIRDPEHRAVLLTAVELLTEYDSN [Q66T]	-0.347 ± 0.044
GRPPQPKSVEDLLDRINLKEHMPTFLFNGYEDLDTFKLLEEEDLDELNIRDPEHRAVLLTAVELLSEYDSN [Q66S]	-0.331 ± 0.039
GRPPQPKSVEDLLDRINLKEHMPTFLFNGYEDLDTFKLLEEEDLDELNIRDPEHRAVLLTAVELLWEYDSN [Q66W]	-0.21 ± 0.061
GRPPQPKSVEDLLDRINLKEHMPTFLFNGYEDLDTFKLLEEEDLDELNIRDPEHRAVLLTAVELLGEYDSN [Q66G]	-0.197 ± 0.052
GRPPQPKSVEDLLDRINLKEHMPTFLFNGYEDLDTFKLLEEEDLDELNIRDPEHRAVLLTAVELLMEYDSN [Q66M]	-0.422 ± 0.054
GRPPQPKSVEDLLDRINLKEHMPTFLFNGYEDLDTFKLLEEEDLDELNIRDPEHRAVLLTAVELLFEYDSN [Q66F]	-0.694 ± 0.061
GRPPQPKSVEDLLDRINLKEHMPTFLFNGYEDLDTFKLLEEEDLDELNIRDPEHRAVLLTAVELLVEYDSN [Q66V]	-0.587 ± 0.054
GRPPQPKSVEDLLDRINLKEHMPTFLFNGYEDLDTFKLLEEEDLDELNIRDPEHRAVLLTAVELLPEYDSN [Q66P]	-0.673 ± 0.056
GRPPQPKSVEDLLDRINLKEHMPTFLFNGYEDLDTFKLLEEEDLDELNIRDPEHRAVLLTAVELLKEYDSN [Q66K]	0.267 ± 0.041
GRPPQPKSVEDLLDRINLKEHMPTFLFNGYEDLDTFKLLEEEDLDELNIRDPEHRAVLLTAVELLHEYDSN [Q66H]	-0.035 ± 0.043
GRPPQPKSVEDLLDRINLKEHMPTFLFNGYEDLDTFKLLEEEDLDELNIRDPEHRAVLLTAVELIQEYDSN [L65I]	-0.433 ± 0.052
GRPPQPKSVEDLLDRINLKEHMPTFLFNGYEDLDTFKLLEEEDLDELNIRDPEHRAVLLTAVELSQEYDSN [L65S]	-0.69 ± 0.048
GRPPQPKSVEDLLDRINLKEHMPTFLFNGYEDLDTFKLLEEEDLDELNIRDPEHRAVLLTAVELHQEYDSN [L65H]	-0.853 ± 0.083
GRPPQPKSVEDLLDRINLKEHMPTFLFNGYEDLDTFKLLEEEDLDELNIRDPEHRAVLLTAVELAQEYDSN [L65A]	-0.625 ± 0.065
GRPPQPKSVEDLLDRINLKEHMPTFLFNGYEDLDTFKLLEEEDLDELNIRDPEHRAVLLTAVELVQEYDSN [L65V]	-0.452 ± 0.056
GRPPQPKSVEDLLDRINLKEHMPTFLFNGYEDLDTFKLLEEEDLDELNIRDPEHRAVLLTAVELTQEYDSN [L65T]	-0.767 ± 0.063
GRPPQPKSVEDLLDRINLKEHMPTFLFNGYEDLDTFKLLEEEDLDELNIRDPEHRAVLLTAVELGQEYDSN [L65G]	-0.808 ± 0.076
GRPPQPKSVEDLLDRINLKEHMPTFLFNGYEDLDTFKLLEEEDLDELNIRDPEHRAVLLTAVELCQEYDSN [L65C]	-0.538 ± 0.07
GRPPQPKSVEDLLDRINLKEHMPTFLFNGYEDLDTFKLLEEEDLDELNIRDPEHRAVLLTAVELQQEYDSN [L65Q]	-0.707 ± 0.084
GRPPQPKSVEDLLDRINLKEHMPTFLFNGYEDLDTFKLLEEEDLDELNIRDPEHRAVLLTAVELWQEYDSN [L65W]	-0.959 ± 0.097
GRPPQPKSVEDLLDRINLKEHMPTFLFNGYEDLDTFKLLEEEDLDELNIRDPEHRAVLLTAVELPQEYDSN [L65P]	-0.88 ± 0.08
GRPPQPKSVEDLLDRINLKEHMPTFLFNGYEDLDTFKLLEEEDLDELNIRDPEHRAVLLTAVELDQEYDSN [L65D]	-0.511 ± 0.09
GRPPQPKSVEDLLDRINLKEHMPTFLFNGYEDLDTFKLLEEEDLDELNIRDPEHRAVLLTAVELRQEYDSN [L65R]	-0.82 ± 0.064
GRPPQPKSVEDLLDRINLKEHMPTFLFNGYEDLDTFKLLEEEDLDELNIRDPEHRAVLLTAVELYQEYDSN [L65Y]	-0.961 ± 0.093
GRPPQPKSVEDLLDRINLKEHMPTFLFNGYEDLDTFKLLEEEDLDELNIRDPEHRAVLLTAVELFQEYDSN [L65F]	-0.696 ± 0.072

Variant	abundance fitness
GRPPQPKSVEDLLDRINLKEHMPTFLFNGYEDLDTFKLLEEEDLDELNIRDPEHRAVLLTAVELKQEYDSN [L65K]	-0.812 ± 0.084
GRPPQPKSVEDLLDRINLKEHMPTFLFNGYEDLDTFKLLEEEDLDELNIRDPEHRAVLLTAVELNQEYDSN [L65N]	-0.841 ± 0.082
GRPPQPKSVEDLLDRINLKEHMPTFLFNGYEDLDTFKLLEEEDLDELNIRDPEHRAVLLTAVELEQEYDSN [L65E]	-0.758 ± 0.097
GRPPQPKSVEDLLDRINLKEHMPTFLFNGYEDLDTFKLLEEEDLDELNIRDPEHRAVLLTAVELLQTYDSN [E67T]	-0.048 ± 0.04
GRPPQPKSVEDLLDRINLKEHMPTFLFNGYEDLDTFKLLEEEDLDELNIRDPEHRAVLLTAVELLQAYDSN [E67A]	-0.082 ± 0.048
GRPPQPKSVEDLLDRINLKEHMPTFLFNGYEDLDTFKLLEEEDLDELNIRDPEHRAVLLTAVELLQNYDSN [E67N]	-0.1 ± 0.048
GRPPQPKSVEDLLDRINLKEHMPTFLFNGYEDLDTFKLLEEEDLDELNIRDPEHRAVLLTAVELLQWYDSN [E67W]	-0.438 ± 0.06
GRPPQPKSVEDLLDRINLKEHMPTFLFNGYEDLDTFKLLEEEDLDELNIRDPEHRAVLLTAVELLQGYDSN [E67G]	-0.107 ± 0.046
GRPPQPKSVEDLLDRINLKEHMPTFLFNGYEDLDTFKLLEEEDLDELNIRDPEHRAVLLTAVELLQSYDSN [E67S]	0.039 ± 0.037
GRPPQPKSVEDLLDRINLKEHMPTFLFNGYEDLDTFKLLEEEDLDELNIRDPEHRAVLLTAVELLQKYDSN [E67K]	-0.094 ± 0.046
GRPPQPKSVEDLLDRINLKEHMPTFLFNGYEDLDTFKLLEEEDLDELNIRDPEHRAVLLTAVELLQCYDSN [E67C]	-0.3 ± 0.057
GRPPQPKSVEDLLDRINLKEHMPTFLFNGYEDLDTFKLLEEEDLDELNIRDPEHRAVLLTAVELLQRYDSN [E67R]	-0.167 ± 0.04
GRPPQPKSVEDLLDRINLKEHMPTFLFNGYEDLDTFKLLEEEDLDELNIRDPEHRAVLLTAVELLQMYDSN [E67M]	-0.342 ± 0.049
GRPPQPKSVEDLLDRINLKEHMPTFLFNGYEDLDTFKLLEEEDLDELNIRDPEHRAVLLTAVELLQLYDSN [E67L]	-0.468 ± 0.041
GRPPQPKSVEDLLDRINLKEHMPTFLFNGYEDLDTFKLLEEEDLDELNIRDPEHRAVLLTAVELLQPYDSN [E67P]	-0.457 ± 0.049
GRPPQPKSVEDLLDRINLKEHMPTFLFNGYEDLDTFKLLEEEDLDELNIRDPEHRAVLLTAVELLQYYDSN [E67Y]	-0.396 ± 0.056
GRPPQPKSVEDLLDRINLKEHMPTFLFNGYEDLDTFKLLEEEDLDELNIRDPEHRAVLLTAVELLQFYDSN [E67F]	-0.609 ± 0.063
GRPPQPKSVEDLLDRINLKEHMPTFLFNGYEDLDTFKLLEEEDLDELNIRDPEHRAVLLTAVELLQHYDSN [E67H]	-0.165 ± 0.047
GRPPQPKSVEDLLDRINLKEHMPTFLFNGYEDLDTFKLLEEEDLDELNIRDPEHRAVLLTAVELLQDYDSN [E67D]	0.02 ± 0.053
GRPPQPKSVEDLLDRINLKEHMPTFLFNGYEDLDTFKLLEEEDLDELNIRDPEHRAVLLTAVELLQIYDSN [E67I]	-0.492 ± 0.057
GRPPQPKSVEDLLDRINLKEHMPTFLFNGYEDLDTFKLLEEEDLDELNIRDPEHRAVLLTAVELLQVYDSN [E67V]	-0.232 ± 0.044
GRPPQPKSVEDLLDRINLKEHMPTFLFNGYEDLDTFKLLEEEDLDELNIRDPEHRAVLLTAVELLQEYCSN [D69C]	-0.479 ± 0.094
GRPPQPKSVEDLLDRINLKEHMPTFLFNGYEDLDTFKLLEEEDLDELNIRDPEHRAVLLTAVELLQEYASN [D69A]	-0.386 ± 0.047
GRPPQPKSVEDLLDRINLKEHMPTFLFNGYEDLDTFKLLEEEDLDELNIRDPEHRAVLLTAVELLQEYFSN [D69F]	-0.811 ± 0.093
